The record followed here is publication doi:10.1101/2025.09.08.674899 (bioRxiv, 2025).

The experiment concerns the target T1, PSAF subunit of Chlamydomonas reinhardtii Photosystem I (Chlamydomonas reinhardtii (endogenous …, UniProt P12356 63-227)).
T1 sequence (looked up): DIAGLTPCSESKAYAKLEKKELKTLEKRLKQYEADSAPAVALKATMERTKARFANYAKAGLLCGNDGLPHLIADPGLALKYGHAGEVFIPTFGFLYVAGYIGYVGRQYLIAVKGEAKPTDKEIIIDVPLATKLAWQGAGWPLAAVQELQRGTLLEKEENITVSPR
Briefly: cross-linking.

B1: Chlamydomonas reinhardtii cytochrome c6 E71Q (natural protein)
chain: ADLALGAQVFNGNCAACHMGGRNSVMPEKTLDKAALEQYLDGGFKVESIIYQVENGKGAMPAWADRLSEEQIQAVAEYVFKQATDAAWKY
modifications: heme (c-type cytochrome)
On to B1, for which the binding result was “binds”.
